The numbers were not newly measured in US6329011A, “Antimicrobial agent against acid-resistant and heat-resistant bacteria” (Director General of Shikoku National Agricultural …, priority 2000, dated 2001), which cites them from elsewhere.

The conditions of data set [1]: heated under acidic conditions at 100° C. for 10 min.
Data set [2] concerns trypsin.
The subject of data set [3] is guinea pigs. The following applies: one oral administration, 103 to 229 mg/kg body weight, observation for 7 days.

Regarding thionin, in data set [1], the “antimicrobial activity after heating” value is listed as “does not lose antimicrobial activity”. For the same substance, the “degradation by digestive enzymes such as trypsin” value in data set [2] was “degraded rapidly”. For the same substance, the “abnormalities after oral administration” value in data set [3] is “did not result in detection of any abnormalities”.
